Reference: patent WO2013087874A1 (dated 2013)

Biological target: T1, ToxA-Holotoxin of Clostridium difficile (Clostridium difficile, UniProt P16154 1-2710)
T1 construct: also called Toxin A
Test: ELISA, monovalent VHH on coated antigen, anti-myc detection

T1 sequence (P16154 whole entry): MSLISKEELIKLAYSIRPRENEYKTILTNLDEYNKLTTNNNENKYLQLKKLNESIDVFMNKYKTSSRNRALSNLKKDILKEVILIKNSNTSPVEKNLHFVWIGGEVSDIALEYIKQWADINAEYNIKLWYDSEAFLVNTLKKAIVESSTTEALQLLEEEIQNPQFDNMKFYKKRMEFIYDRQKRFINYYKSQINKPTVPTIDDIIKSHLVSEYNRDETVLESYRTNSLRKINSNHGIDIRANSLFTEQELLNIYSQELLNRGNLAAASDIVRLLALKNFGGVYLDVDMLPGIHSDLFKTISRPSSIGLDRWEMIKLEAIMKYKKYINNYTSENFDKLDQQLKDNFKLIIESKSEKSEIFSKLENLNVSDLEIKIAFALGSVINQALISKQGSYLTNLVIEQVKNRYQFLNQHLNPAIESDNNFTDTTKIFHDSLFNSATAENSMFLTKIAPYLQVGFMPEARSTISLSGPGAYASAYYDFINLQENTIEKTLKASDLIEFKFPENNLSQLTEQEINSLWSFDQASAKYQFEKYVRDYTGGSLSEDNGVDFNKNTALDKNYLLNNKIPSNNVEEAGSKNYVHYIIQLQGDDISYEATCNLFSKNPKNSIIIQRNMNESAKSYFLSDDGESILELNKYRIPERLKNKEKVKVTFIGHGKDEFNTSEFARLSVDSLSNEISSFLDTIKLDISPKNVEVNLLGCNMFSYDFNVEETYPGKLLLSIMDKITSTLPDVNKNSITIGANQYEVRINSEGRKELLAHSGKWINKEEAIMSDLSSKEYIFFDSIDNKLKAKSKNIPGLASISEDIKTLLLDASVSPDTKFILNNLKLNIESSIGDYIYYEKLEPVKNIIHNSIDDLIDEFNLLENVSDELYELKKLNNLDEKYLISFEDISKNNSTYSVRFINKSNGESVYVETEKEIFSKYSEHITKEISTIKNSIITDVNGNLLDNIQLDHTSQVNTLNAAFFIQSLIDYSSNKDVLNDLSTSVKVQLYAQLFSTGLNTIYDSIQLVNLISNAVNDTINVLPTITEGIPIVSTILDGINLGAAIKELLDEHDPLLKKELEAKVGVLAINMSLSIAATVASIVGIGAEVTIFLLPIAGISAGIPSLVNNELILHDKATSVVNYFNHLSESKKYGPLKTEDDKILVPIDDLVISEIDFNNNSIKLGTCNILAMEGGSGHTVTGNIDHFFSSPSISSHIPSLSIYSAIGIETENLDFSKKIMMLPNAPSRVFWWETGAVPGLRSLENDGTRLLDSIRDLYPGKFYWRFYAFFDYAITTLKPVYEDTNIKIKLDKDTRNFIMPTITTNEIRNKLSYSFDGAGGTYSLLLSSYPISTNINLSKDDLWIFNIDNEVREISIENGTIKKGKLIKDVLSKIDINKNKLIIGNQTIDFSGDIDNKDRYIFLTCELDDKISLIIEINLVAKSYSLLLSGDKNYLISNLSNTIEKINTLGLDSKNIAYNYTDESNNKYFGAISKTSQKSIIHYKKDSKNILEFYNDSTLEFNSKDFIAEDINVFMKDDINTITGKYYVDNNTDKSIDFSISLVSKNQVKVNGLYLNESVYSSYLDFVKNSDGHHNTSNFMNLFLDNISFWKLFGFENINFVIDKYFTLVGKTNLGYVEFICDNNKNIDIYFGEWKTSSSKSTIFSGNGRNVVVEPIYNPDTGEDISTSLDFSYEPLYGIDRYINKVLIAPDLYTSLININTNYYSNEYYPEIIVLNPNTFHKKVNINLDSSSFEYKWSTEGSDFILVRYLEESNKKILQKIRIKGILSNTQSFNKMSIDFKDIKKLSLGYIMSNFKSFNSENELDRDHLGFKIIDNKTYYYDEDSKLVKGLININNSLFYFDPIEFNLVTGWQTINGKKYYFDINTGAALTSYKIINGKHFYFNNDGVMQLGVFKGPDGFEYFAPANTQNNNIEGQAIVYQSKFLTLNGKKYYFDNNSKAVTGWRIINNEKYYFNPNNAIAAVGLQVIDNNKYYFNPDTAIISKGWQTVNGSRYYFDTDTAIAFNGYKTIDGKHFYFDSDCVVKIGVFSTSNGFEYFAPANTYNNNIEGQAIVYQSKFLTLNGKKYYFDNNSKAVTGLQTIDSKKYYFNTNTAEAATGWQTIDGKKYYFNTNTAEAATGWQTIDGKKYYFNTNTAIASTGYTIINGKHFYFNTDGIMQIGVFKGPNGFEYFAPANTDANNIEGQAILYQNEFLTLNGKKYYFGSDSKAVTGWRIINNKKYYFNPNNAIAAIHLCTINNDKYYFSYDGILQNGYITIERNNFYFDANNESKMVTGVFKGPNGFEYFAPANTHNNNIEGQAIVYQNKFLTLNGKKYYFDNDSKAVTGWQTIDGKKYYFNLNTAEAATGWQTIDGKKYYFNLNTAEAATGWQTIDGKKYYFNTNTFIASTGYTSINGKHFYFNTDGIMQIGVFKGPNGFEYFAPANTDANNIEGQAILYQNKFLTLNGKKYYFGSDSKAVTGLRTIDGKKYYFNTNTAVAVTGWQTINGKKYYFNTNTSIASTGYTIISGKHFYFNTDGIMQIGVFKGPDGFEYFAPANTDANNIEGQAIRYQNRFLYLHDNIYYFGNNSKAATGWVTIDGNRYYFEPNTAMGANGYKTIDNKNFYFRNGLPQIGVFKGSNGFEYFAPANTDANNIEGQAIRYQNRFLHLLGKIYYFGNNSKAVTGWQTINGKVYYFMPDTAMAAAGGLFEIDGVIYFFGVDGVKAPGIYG

Row | Binder | binding result
1 | VHH L-14 (#2622, SEQ ID NO:2) (VHH) VHH: DVQLQASGGGLVPAGGSLRLSCAASGHSFSSLDMAWFRQAPGREREFVAQISWSGSHTYYQDAVKGRFTISRDSAKNTGYLQMTNLKPEDTAVYYCAATYRPNTFTPAEYDYWGQGTQVTVSA | no binding (tested: 8-1000 ng VHH)
2 | VHH S-20a (#2352, SEQ ID NO:11) (VHH) VHH: DVQLQASGGGLVQAGDSLRLSCSASGLTFSSYAMGWFRQAPGKEREFVAAISWANGGSTVYADPVKGRFTISRDNAKNTVYLQMNSLKPEDTAVYSCAAADQRVGYIEYYSGSSGKEYDYWGQGTQVTVSS | no binding (tested: 8-1000 ng VHH)
3 | VHH L+18a (#2173, SEQ ID NO:5) (VHH) VHH: DVQLQASGGGLVQAGGSMRLSCAASGFTFDEFAIGWFRQAPGKEREAVSCIRSSDGSTWYADSVKGRFTISSDNAKNTVTLRMNSLKPEDTADYTCAALGSGYGCSLFTTTVGMDYWGKGTLVTVSS | no binding (tested: 8-1000 ng VHH)
4 | VHH L-15a (#2169, SEQ ID NO:3) (VHH) VHH: DVQLQESGGGLVQAGGSLRLSCAASRSLRSIAVMGWFRQAPGKQREYVARITSGGYTDYADSVKGRFTIFDDSANNTVYLQMTSLKPEDTAVYHCAAGGFTEAYSGTYYPDSWGQGTQVTVSS | no binding (tested: 8-1000 ng VHH)
